Where two headings read alike, the source gives them in different places. One block for each molecule: values may come before it. Non-standard residues stand in square brackets, D forms with d. Residues, ends and D or L forms follow the SMILES beside them. No end group written: not given here. Hyp = O=C(O)[C@@H]1C[C@@H](O)CN1
Tests used:
[1] = molecular target: T1, α2I binding to type III collagen (Homo sapiens, UniProt P17301); assay: Competition ELISA, inhibition of I domain binding to type III collagen; settings: 100 μM peptide, 5 μM α2I, type III procollagen-coated wells
T1 construct: recombinant I domains from integrins α1 and α2 (α1I and α2I); made in house
T1 sequence (P17301 188-365 limits assumed): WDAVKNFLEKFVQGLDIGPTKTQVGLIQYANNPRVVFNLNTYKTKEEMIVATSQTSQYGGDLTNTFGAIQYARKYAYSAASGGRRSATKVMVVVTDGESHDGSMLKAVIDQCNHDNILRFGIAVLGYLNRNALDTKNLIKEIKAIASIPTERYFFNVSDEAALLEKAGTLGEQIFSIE

[2] = molecular target: T2, α1I binding to type III collagen (Homo sapiens, UniProt P56199); assay: as above; settings: 100 μM peptide, 0.5 μM α1I, type III procollagen-coated wells
T2 construct: recombinant I domains from integrins α1 and α2 (α1I and α2I); made in house
T2 sequence (P56199 161-360 limits assumed): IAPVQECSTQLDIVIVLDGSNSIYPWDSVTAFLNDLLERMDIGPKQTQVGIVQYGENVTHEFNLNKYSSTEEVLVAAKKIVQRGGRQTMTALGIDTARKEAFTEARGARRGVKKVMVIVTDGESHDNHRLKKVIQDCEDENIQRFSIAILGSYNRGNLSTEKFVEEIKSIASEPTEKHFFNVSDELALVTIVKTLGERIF

MRC-5 cells = assay: Cell attachment assay on coated substrates; format: cell-based, human; settings: increasing coating concentrations, 1.5×10^4 cells per well, 45 min, room temperature
Procedure: Reagents and Cell Culture. The human recombinant mature type III collagen used for cell attachment assays was purchased from FibroGen. All cell culture media components were purchased from Invitrogen. The human lung fibroblast cell line MRC-5 was purchased from American Type Culture Collection (ATCC) (Manassas, Va.). The cells were cultured and passaged in Dulbecco's modified Eagle's medium (DMEM) supplemented with 10% fetal bovine serum, 100 unit/ml penicillin and 100 μg/ml streptomycin. The cells were grown to subconfluence and passaged every 2-3 days.
Cell attachment assay. MRC-5 cells were starved overnight in serum deficient DMEM containing penicillin and streptomycin, then detached using 1 mM EDTA and 0.025% trypsin at 37° C. for 2 minutes. The cells were washed with PBS and resuspended in DMEM containing 0.2% BSA supplemented with 2 mM MgCl2. 100 μl of the cell suspension (˜1.5×10^5 cells/ml) were added to the microtiter wells coated with different concentrations of collagen or collagen peptides and blocked with PBS containing 0.5% (w/v) BSA. After incubation at room temperature for 45 min, the wells were washed with PBS. Attached cells were fixed with 3% p-formaldehyde for 10 min at room temperature. Following washing with cold Tris-buffered saline (TBS), pH 7.4, cells were fixed again in 20% methanol for 10 min and stained with 0.5% crystal violet for 5 min. The wells were thoroughly washed with distilled water and air-dried. Sodium citrate (0.1 M) was then added to the wells to dissolve the dye and the absorbance at 590 nm was measured. The maximum cell attachment on type III collagen was set to 100% and, residual attachment on BSA was set to 0%.
Adhesion of MRC-5 cells to peptide#1 (SEQ ID NO: 15) substrates. […] Wells in 96-well plates were coated with increasing concentrations of type III collagen, peptide #1 (SEQ ID NO: 15) or #2 (SEQ ID NO: 16) and 1.5×10^4 MRC-5 cells were added to each well. The plate was incubated for 45 min at room temperature and adhering cells were quantified as described herein.

[3] = molecular target: T3, α2I (recombinant I domain of integrin α2) (Homo sapiens, UniProt P17301); assay: SPR (BIAcore 3000), I domain binding to immobilized fibrillar collagens; settings: equilibrium analysis, 1 mM MgCl2
T3 construct: recombinant I domains from integrins α1 and α2 (α1I and α2I); made in house
T3 sequence (P17301 188-365 limits assumed): as the sequence (P17301 188-365 limits assumed) above
Procedure: Surface Plasmon Resonance (SPR) measurements. For the analyses of interactions between recombinant I domains and fibrillar collagens, SPR measurements were carried out at ambient temperature using the BIAcore 3000 system (BIAcore, Uppsala, Sweden) as described previously (21) with following modifications. First, purified recombinant human procollagens I and III (described above), or bovine mature type II collagen (Sigma) were immobilized on the flow cells of a CM5 chip resulting in 200-700 response units of immobilized protein.
SPR sensorgrams from different injections were overlaid using the BIAevaluation software (BIAcore AB). Data from the steady state portion of the sensorgrams were used to determine the binding affinities. Based on the correlation between the SPR response and change in protein mass on the surfaces of flow cells, values for the binding ratio, νbound, and the concentration of free protein, [P]free, were calculated using the equations described previously (21). Scatchard analysis was performed by plotting νbound/[P]free against νbound in which the negative reciprocal of the slope is the dissociation constant, KD. Nonlinear regression was also performed by plotting νbound against [P]free and fitted with the one-binding class or the two-binding class models using the GraphPad Prism™ software (GraphPad Software Inc., San Diego, Calif.). Results from the two models were compared with respect to the value of R^2 and the degree of freedom of the curve fit. The model that gave KD values outside the experimental data range was excluded. Experimental results were reproducible with at least three independent protein preparations.
The interactions between the two I domains and fibrillar collagens (types I, II and III) were examined by SPR. Solutions of 1 μM α1I or α2I were passed over chips containing immobilized collagen I, II, or III in the presence of 1 mM MgCl2.
The BIAcore 3000 system used in the present invention had higher sensitivity of detection which enabled examination of the interactions between α2I and collagens at a sub-micromolar concentration range. […] The binding affinities of α2I to the three types of collagen appeared to be slightly more variable.

[4] = CD temperature-dependent denaturation of triple helix; format: physicochemical; settings: CD ellipticity at 225 nm, 20° C./hr, Boltzmann sigmoidal fit
Procedure: Circular Dichroism (CD) Spectroscopy. Synthetic collagen peptides were analyzed by CD spectroscopy, as described previously (18) with the following modifications. Briefly, peptides were dissolved in HBS to a concentration of 50 μM. CD spectra were collected on a Jasco J720 spectropolarimeter (Tokyo, Japan) from 190 to 240 nm, with bandwidth of 1 nm and integrated for 1 s at 0.2 nm intervals. Samples were measured at room temperature using cuvettes with 0.02 cm path length. For temperature-dependent denaturation analysis, […] of peptides were added to a thermostatically controlled cuvette with a 0.5 cm path length. Thermal transition profiles were recorded at 225 nm as described above with a temperature slope of 20° C./hr. To calculate the temperature melting points, the thermal transition profiles were fitted with Boltzmann sigmoidal model using the GraphPad Prism™ software (GraphPad Software Inc., San Diego, Calif.).

[5] = first line per collagen in Table 2 (unit from b77), read-out: KD, high affinity binding class
[6] = second line per collagen in Table 2 (unit from b77), read-out: KD, low affinity binding class

- inhibition of binding of α2I to type III collagen [1]: 60%
- inhibition of binding of α1I to type III collagen [2]: 40%
Molecule: (GPO)3GAOGERGROGLO(GPO)3 (GP[Hyp]GP[Hyp]GP[Hyp]GA[Hyp]GERGR[Hyp]GL[Hyp]GP[Hyp]GP[Hyp]GP[Hyp]) [peptide #2]
- adhesion of MRC-5 cells to coated substrate (MRC-5 cells): could not

- Kd ([3]; first line per collagen in Table 2 (unit from b77), listed as type I collagen, read-out: KD, high affinity binding class): ~0.3 µM
- Kd [3, 5]: 0.26 ± 0.08 µM
- Kd ([3]; second line per collagen in Table 2 (unit from b77), listed as type I collagen, read-out: KD, low affinity binding class): ~4 µM
- Kd [3, 6]: 3.99 ± 0.82 µM
Molecule: Collagen I: purified recombinant human procollagen I immobilized for SPR; type I collagen of the cited earlier study

- melting temperature (Tm) of triple helix [4]: 41 °C
Molecule: N=C(N)NCCC[C@H](NC(=O)[C@H](CCC(=O)O)NC(=O)CNC(=O)[C@@H]1C[C@@H](O)CN1C(=O)[C@H](CCCNC(=N)N)NC(=O)CNC(=O)[C@@H]1C[C@@H](O)CN1C(=O)[C@@H]1CCCN1C(=O)CNC(=O)[C@@H]1C[C@@H](O)CN1C(=O)[C@@H]1CCCN1C(=O)CNC(=O)[C@@H]1C[C@@H](O)CN1C(=O)[C@@H]1CCCN1C(=O)CN)C(=O)NCC(=O)N1CCC[C@H]1C(=O)N1C[C@H](O)C[C@H]1C(=O)NCC(=O)N1CCC[C@H]1C(=O)N1C[C@H](O)C[C@H]1C(=O)NCC(=O)N1CCC[C@H]1C(=O)N1C[C@H](O)C[C@H]1C(N)=O [GROGER] (H-GP[Hyp]GP[Hyp]GP[Hyp]GR[Hyp]GERGP[Hyp]GP[Hyp]GP[Hyp]-NH2; N-terminus and C-terminus assumed)

More lines, now with the values behind:

Molecule: Collagen II: bovine mature type II collagen (Sigma)
- Kd [3, 5]: 1.75 µM
- Kd ([3]; second line per collagen in Table 2 (unit from b77), listed as type II collagen, read-out: KD, low affinity binding class): ~16.5 µM
- Kd [3, 6]: 16.5 ± 3.89 µM

Molecule: (GPO)11 (GPRGRT) [peptide #3, control peptide, reference compound]
- inhibition of binding of α2I to type III collagen [1]: did not show any inhibitory activity
- inhibition of binding of α1I to type III collagen [2]: did not show any inhibitory activity

B1: Collagen III: recombinant human procollagen III in SPR; human recombinant mature type III collagen (FibroGen) in cell attachment assay (protein)
chain: QQEAVEGGCSHLGQSYADRDVWKPEPCQICVCDSGSVLCDDIICDDQELDCPNPEIPFGECCAVCPQPPTAPTRPPNGQGPQGPKGDPGPPGIPGRNGDPGIPGQPGSPGSPGPPGICESCPTGPQNYSPQYDSYDVKSGVAVGGLAGYPGPAGPPGPPGPPGTSGHPGSPGSPGYQGPPGEPGQAGPSGPPGPPGAIGPSGPAGKDGESGRPGRPGERGLPGPPGIKGPAGIPGFPGMKGHRGFDGRNGEKGETGAPGLKGENGLPGENGAPGPMGPRGAPGERGRPGLPGAAGARGNDGARGSDGQPGPPGPPGTAGFPGSPGAKGEVGPAGSPGSNGAPGQRGEPGPQGHAGAQGPPGPPGINGSPGGKGEMGPAGIPGAPGLMGARGPPGPAGANGAPGLRGGAGEPGKNGAKGEPGPRGERGEAGIPGVPGAKGEDGKDGSPGEPGANGLPGAAGERGAPGFRGPAGPNGIPGEKGPAGERGAPGPAGPRGAAGEPGRDGVPGGPGMRGMPGSPGGPGSDGKPGPPGSQGESGRPGPPGPSGPRGQPGVMGFPGPKGNDGAPGKNGERGGPGGPGPQGPPGKNGETGPQGPPGPTGPGGDKGDTGPPGPQGLQGLPGTGGPPGENGKPGEPGPKGDAGAPGAPGGKGDAGAPGERGPPGLAGAPGLRGGAGPPGPEGGKGAAGPPGPPGAAGTPGLQGMPGERGGLGSPGPKGDKGEPGGPGADGVPGKDGPRGPTGPIGPPGPAGQPGDKGEGGAPGLPGIAGPRGSPGERGETGPPGPAGFPGAPGQNGEPGGKGERGAPGEKGEGGPPGVAGPPGGSGPAGPPGPQGVKGERGSPGGPGAAGFPGARGLPGPPGSNGNPGPPGPSGSPGKDGPPGPAGNTGAPGSPGVSGPKGDAGQPGEKGSPGAQGPPGAPGPLGIAGITGARGLAGPPGMPGPRGSPGPQGVKGESGKPGANGLSGERGPPGPQGLPGLAGTAGEPGRDGNPGSDGLPGRDGSPGGKGDRGENGSPGAPGAPGHPGPPGPVGPAGKSGDRGESGPAGPAGAPGPAGSRGAPGPQGPRGDKGETGERGAAGIKGHRGFPGNPGAPGSPGPAGQQGAIGSPGPAGPRGPVGPSGPPGKDGTSGHPGPIGPPGPRGNRGERGSEGSPGHPGQPGPPGPPGAPGPCCGGVGAAAIAGIGGEKAGGFAPYYGDEPMDFKINTDEIMTSLKSVNGQIESLISPDGSRKNPARNCRDLKFCHPELKSGEYWVDPNQGCKLDAIKVFCNMETGETCISANPLNVPRKHWWTDSSAEKKHVWFGESMDGGFQFSYGNPELPEDVLDVHLAFLRLLSSRASQNITYHCKNSIAYMDQASGNVKKALKLMGSNEGEFKAEGNSKFTYTVLEDGCTKHTGEWSKTVFEYRTRKAVRLPIVDIAPYDIGGPDQEFGVDVGPVCFL
modifications: non-natural residues
notes: recombinant human procollagen III in SPR; human recombinant mature type III collagen (FibroGen) in cell attachment assay
- Kd ([3]; first line per collagen in Table 2 (unit from b77), listed as type III collagen, read-out: KD, high affinity binding class): ~0.3 µM
- Kd [3, 5]: 0.33 ± 0.03 µM
- Kd ([3]; second line per collagen in Table 2 (unit from b77), listed as type III collagen, read-out: KD, low affinity binding class): ~14.5 µM
- Kd [3, 6]: 14.5 ± 3.41 µM
- adhesion of MRC-5 cells to coated substrate (MRC-5 cells): could support adhesion of MRC-5 cells in a dose-dependent manner

From US10358464B2, “Specific binding sites in collagen for integrins and use thereof” (The Texas A&M University System, priority 2005, dated 2019)
